The text below walks through data of the Immune Epitope Database (IEDB).

Among the targets are HLA-A*02:01; HLA-A*02:02; HLA-A*02:03; HLA-A*02:06; HLA-A*68:02.
What all share (test): IEDB peptide-MHC binding, purified MHC/competitive/radioactivity; ≥ and ≤ were set here for values at or beyond the usual limits of such assays
The mark [1] stands for this setting: source organism: Vaccinia virus WR.
The mark [2] stands for this setting: source organism: Mammarenavirus guanaritoense.
The mark [3] stands for this setting: source organism: Influenza A virus.
Where [4] appears, read: source organism: Hepacivirus hominis.

With VVHGYFTEV, the IC50 came out at 15 nM with HLA-A*02:01 (source organism: SARS-CoV1); 17 nM with HLA-A*02:02 (source organism: SARS-CoV1); 3.3 nM with HLA-A*02:03 (source organism: SARS-CoV1); 2.6 nM with HLA-A*02:06 (source organism: SARS-CoV1); 24 nM in the test with HLA-A*68:02 (source organism: SARS-CoV1).

Turning to CIVAAVIIMA, the IC50 in the test with HLA-A*02:01 (setting [1]) was determined as 1900 nM; with HLA-A*02:02 (setting [1]) it was 1130 nM; in the test with HLA-A*02:03 (setting [1]), 619 nM; with HLA-A*02:06 (setting [1]), 733 nM; in the test with HLA-A*68:02 (setting [1]), 1.3 nM.

Regarding NTISGNIYSA, the IC50 with HLA-A*02:01 (setting [1]) turned out to be 640 nM; with HLA-A*02:02 (setting [1]), 269 nM; with HLA-A*02:03 (setting [1]) it was 314 nM; with HLA-A*02:06 (setting [1]), 393 nM; in the test with HLA-A*68:02 (setting [1]), 0.19 nM.

Turning to LMGHFSWWTA, the IC50 with HLA-A*02:01 (source organism: SARS-CoV1) was found to be 18 nM; in the test with HLA-A*02:02 (source organism: SARS-CoV1), 19 nM; with HLA-A*02:03 (source organism: SARS-CoV1), 135 nM; with HLA-A*02:06 (source organism: SARS-CoV1), 97 nM; with HLA-A*68:02 (source organism: SARS-CoV1) it was 82 nM.

Take YCNYTRFWYI: the IC50 in the test with HLA-A*02:01 (setting [2]) was found to be 322 nM; with HLA-A*02:02 (setting [2]), 1060 nM; in the test with HLA-A*02:03 (setting [2]), 4340 nM; in the test with HLA-A*02:06 (setting [2]) it was 81 nM; with HLA-A*68:02 (setting [2]), 1340 nM.

LMSFTILCLV: the IC50 with HLA-A*02:01 (source organism: SARS-CoV1) was 8.4 nM; in the test with HLA-A*02:02 (source organism: SARS-CoV1), 0.34 nM; in the test with HLA-A*02:03 (source organism: SARS-CoV1) it was 91 nM; in the test with HLA-A*02:06 (source organism: SARS-CoV1) it was 40 nM; with HLA-A*68:02 (source organism: SARS-CoV1) it was 40 nM.

With MLWCKDGHV, the concentration for half-maximal inhibition (IC50) in the test with HLA-A*02:01 (source organism: SARS-CoV1) came out at 30 nM; with HLA-A*02:02 (source organism: SARS-CoV1), 10 nM; with HLA-A*02:03 (source organism: SARS-CoV1) it was 11 nM; in the test with HLA-A*02:06 (source organism: SARS-CoV1), 362 nM; with HLA-A*68:02 (source organism: SARS-CoV1) it was 74 nM.

With VMYAFTTPL, the IC50 with HLA-A*02:01 (setting [1]) amounted to 0.87 nM; with HLA-A*02:02 (setting [1]) it was 0.57 nM; with HLA-A*02:03 (setting [1]), 1.3 nM; with HLA-A*02:06 (setting [1]), 5.7 nM; with HLA-A*68:02 (setting [1]) it was 112 nM.

For the sequence TSFFYRYGFV, the IC50 with HLA-A*02:01 (setting [3]) stood at 1100 nM; with HLA-A*02:02 (setting [3]) it was 1100 nM; with HLA-A*02:03 (setting [3]) it was 451 nM; with HLA-A*02:06 (setting [3]), 851 nM; with HLA-A*68:02 (setting [3]), 0.0096 nM.

As to NILMDSIFV, the IC50 with HLA-A*02:01 (setting [1]) came to 179 nM; with HLA-A*02:02 (setting [1]), 252 nM; with HLA-A*02:03 (setting [1]) it was 223 nM; with HLA-A*02:06 (setting [1]), 170 nM; with HLA-A*68:02 (setting [1]) it was 147 nM.

For the sequence STYPGNTFV, the IC50 with HLA-A*02:01 (setting [1]) is 64 nM; with HLA-A*02:02 (setting [1]), 11 nM; in the test with HLA-A*02:03 (setting [1]), 0.19 nM; with HLA-A*02:06 (setting [1]), 0.46 nM; in the test with HLA-A*68:02 (setting [1]), 0.24 nM.

As for LVSDCASTI, the IC50 with HLA-A*02:01 (setting [1]) turned out to be 2740 nM; with HLA-A*02:02 (setting [1]) it was 49 nM; in the test with HLA-A*02:03 (setting [1]) it was 17 nM; with HLA-A*02:06 (setting [1]) it was 61 nM; with HLA-A*68:02 (setting [1]) it was 71 nM.

Take NMLDDFSAGA: the IC50 came out at 190 nM with HLA-A*02:01 (setting [1]); 308 nM in the test with HLA-A*02:02 (setting [1]); 161 nM with HLA-A*02:03 (setting [1]); 242 nM with HLA-A*02:06 (setting [1]); 2600 nM with HLA-A*68:02 (setting [1]).

With KLIEYSDFA, the IC50 in the test with HLA-A*02:01 (source organism: SARS-CoV1) worked out at 0.54 nM; in the test with HLA-A*02:02 (source organism: SARS-CoV1), 0.095 nM; with HLA-A*02:03 (source organism: SARS-CoV1), 0.53 nM; with HLA-A*02:06 (source organism: SARS-CoV1), 0.71 nM; with HLA-A*68:02 (source organism: SARS-CoV1), 10 nM.

Take FTFGDTALYV: the IC50 stood at 181 nM with HLA-A*02:01 (setting [1]); 24 nM with HLA-A*02:02 (setting [1]); 48 nM in the test with HLA-A*02:03 (setting [1]); 3.5 nM with HLA-A*02:06 (setting [1]); 175 nM in the test with HLA-A*68:02 (setting [1]).

Consider YSMAGNWAKV, for which the IC50 in the test with HLA-A*02:01 (setting [4]) was 175 nM; with HLA-A*02:02 (setting [4]) it was 75 nM; in the test with HLA-A*02:03 (setting [4]), 17 nM; with HLA-A*02:06 (setting [4]) it was 425 nM; with HLA-A*68:02 (setting [4]), 28 nM.

Consider IVNTTYDFL, for which the IC50 was determined as 1050 nM with HLA-A*02:01 (setting [1]); 1880 nM with HLA-A*02:02 (setting [1]); 4680 nM in the test with HLA-A*02:03 (setting [1]); 2990 nM with HLA-A*02:06 (setting [1]); 750 nM in the test with HLA-A*68:02 (setting [1]).

As to SLEATFIDV, the IC50 in the test with HLA-A*02:01 (setting [1]) amounted to 182 nM; with HLA-A*02:02 (setting [1]), 35 nM; with HLA-A*02:03 (setting [1]), 80 nM; with HLA-A*02:06 (setting [1]), 10 nM; with HLA-A*68:02 (setting [1]) it was 23 nM.

For the sequence SVKNLILNFL, the IC50 with HLA-A*02:01 (setting [1]) is 2210 nM; with HLA-A*02:02 (setting [1]), 1040 nM; with HLA-A*02:03 (setting [1]) it was 163 nM; in the test with HLA-A*02:06 (setting [1]), 551 nM; with HLA-A*68:02 (setting [1]), 130 nM.

As to YVVVHGYFT, the IC50 was 1070 nM in the test with HLA-A*02:01 (source organism: SARS-CoV1); 342 nM with HLA-A*02:02 (source organism: SARS-CoV1); 792 nM with HLA-A*02:03 (source organism: SARS-CoV1); 171 nM with HLA-A*02:06 (source organism: SARS-CoV1); 212 nM with HLA-A*68:02 (source organism: SARS-CoV1).

PIIYSKAGNI: the IC50 with HLA-A*02:01 (setting [1]) was 873 nM; in the test with HLA-A*02:02 (setting [1]), 654 nM; with HLA-A*02:03 (setting [1]) it was 139 nM; with HLA-A*02:06 (setting [1]), 728 nM; in the test with HLA-A*68:02 (setting [1]), 3110 nM.

As to FLLPLTSLVI, the IC50 came to 0.84 nM with HLA-A*02:01 (setting [1]); 11 nM in the test with HLA-A*02:02 (setting [1]); 5.1 nM with HLA-A*02:03 (setting [1]); 2.5 nM with HLA-A*02:06 (setting [1]); 1020 nM with HLA-A*68:02 (setting [1]).

On to IMDKEQLLKI, for which the IC50 was found to be 890 nM in the test with HLA-A*02:01 (setting [1]); 311 nM with HLA-A*02:02 (setting [1]); 288 nM with HLA-A*02:03 (setting [1]); 1340 nM with HLA-A*02:06 (setting [1]); 3240 nM with HLA-A*68:02 (setting [1]).

For the sequence YASLTTIGT, the IC50 was 868 nM in the test with HLA-A*02:01 (setting [1]); 409 nM in the test with HLA-A*02:02 (setting [1]); 144 nM with HLA-A*02:03 (setting [1]); 161 nM with HLA-A*02:06 (setting [1]); 52 nM with HLA-A*68:02 (setting [1]).
